According to patent publication US20140072613A1 (published 2014):

B1: MMI-0300 (peptide)
peptide: FAKLAARLYRKALARQLGVAA
B2: MMI-0400 (peptide)
peptide: KAFAKLAARLYRKALARQLGVAA

How the values were obtained:
Assay in all cases: cell-based or functional assay
PAK6(h) = PAK6(h) (human, UniProt Q9NQU5 1-681, limits assumed)
PKBα(h) = PKBα(h) (human, UniProt P31749 1-480, limits assumed)
CHK2(I157T)(h) = CHK2(I157T)(h) (human, UniProt O96017 5-543, limits assumed)
NEK6(h) = NEK6(h) (human, UniProt Q9HC98 1-313)
JNK2α2(h) = JNK2α2(h) (human, UniProt P45984 1-424)
Axl(h) = biological target: T1, Axl(h) (human, UniProt P30530 473-894, limits assumed)
T1 sequence (looked up): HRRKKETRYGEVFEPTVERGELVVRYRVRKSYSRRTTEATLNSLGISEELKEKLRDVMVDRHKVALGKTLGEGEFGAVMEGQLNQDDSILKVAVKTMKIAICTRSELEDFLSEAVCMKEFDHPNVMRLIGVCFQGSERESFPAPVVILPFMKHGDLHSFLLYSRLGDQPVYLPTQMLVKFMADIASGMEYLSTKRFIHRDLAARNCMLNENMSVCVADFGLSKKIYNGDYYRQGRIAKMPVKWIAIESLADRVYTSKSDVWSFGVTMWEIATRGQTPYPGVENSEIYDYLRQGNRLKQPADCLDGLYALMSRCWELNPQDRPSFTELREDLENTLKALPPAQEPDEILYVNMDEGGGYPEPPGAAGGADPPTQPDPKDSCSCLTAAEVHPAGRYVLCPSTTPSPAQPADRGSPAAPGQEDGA

Rsk3(h) = Rsk3(h) (human, UniProt Q15349 1-733)
FGFR1(h) = FGFR1(h) (human, UniProt P11362 456-765, limits assumed)
Rsk4(h) = Rsk4(h) (human, UniProt Q9UK32 1-745, limits assumed)
PKD2(h) = biological target: T2, PKD2(h) (human, UniProt Q9BZL6 1-878)
T2 sequence (looked up): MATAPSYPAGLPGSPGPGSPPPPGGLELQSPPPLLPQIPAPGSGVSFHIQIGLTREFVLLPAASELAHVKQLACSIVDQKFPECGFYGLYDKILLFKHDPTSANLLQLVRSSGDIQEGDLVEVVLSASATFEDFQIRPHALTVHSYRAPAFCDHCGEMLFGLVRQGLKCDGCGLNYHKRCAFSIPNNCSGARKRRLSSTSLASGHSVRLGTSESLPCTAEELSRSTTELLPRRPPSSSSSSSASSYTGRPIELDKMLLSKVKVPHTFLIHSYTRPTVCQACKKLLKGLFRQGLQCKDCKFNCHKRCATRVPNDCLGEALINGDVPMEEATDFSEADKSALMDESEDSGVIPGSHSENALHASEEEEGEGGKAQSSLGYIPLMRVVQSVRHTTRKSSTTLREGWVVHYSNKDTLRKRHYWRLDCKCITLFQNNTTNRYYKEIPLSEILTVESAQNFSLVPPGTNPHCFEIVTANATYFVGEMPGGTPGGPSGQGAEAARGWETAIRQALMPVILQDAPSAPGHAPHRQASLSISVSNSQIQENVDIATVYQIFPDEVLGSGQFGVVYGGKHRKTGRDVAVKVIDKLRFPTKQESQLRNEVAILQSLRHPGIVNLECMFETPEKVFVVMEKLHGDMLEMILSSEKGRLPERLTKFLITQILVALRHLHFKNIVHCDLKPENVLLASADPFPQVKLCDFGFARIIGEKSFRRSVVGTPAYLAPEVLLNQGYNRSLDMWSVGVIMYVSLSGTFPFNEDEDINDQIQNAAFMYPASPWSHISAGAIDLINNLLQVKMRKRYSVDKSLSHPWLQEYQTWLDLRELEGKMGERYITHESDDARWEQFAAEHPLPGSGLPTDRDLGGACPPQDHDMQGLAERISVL

EphA7(h) = EphA7(h) (human, UniProt Q15375 577-998, limits assumed)
Arg(h) = Arg(h) (human, UniProt P42684 38-1182, limits assumed)
Met(Y1248D)(h) = Met(Y1248D)(h) (human, UniProt P08581-2 974-1408, limits assumed)
Pim-2(h) = Pim-2(h) (human, UniProt Q9P1W9 1-311)
Fgr(h) = Fgr(h) (human, UniProt P09769 1-529)
Fms(h) = biological target: T3, Fms(h) (human, UniProt P07333 538-972, limits assumed)
T3 sequence (looked up): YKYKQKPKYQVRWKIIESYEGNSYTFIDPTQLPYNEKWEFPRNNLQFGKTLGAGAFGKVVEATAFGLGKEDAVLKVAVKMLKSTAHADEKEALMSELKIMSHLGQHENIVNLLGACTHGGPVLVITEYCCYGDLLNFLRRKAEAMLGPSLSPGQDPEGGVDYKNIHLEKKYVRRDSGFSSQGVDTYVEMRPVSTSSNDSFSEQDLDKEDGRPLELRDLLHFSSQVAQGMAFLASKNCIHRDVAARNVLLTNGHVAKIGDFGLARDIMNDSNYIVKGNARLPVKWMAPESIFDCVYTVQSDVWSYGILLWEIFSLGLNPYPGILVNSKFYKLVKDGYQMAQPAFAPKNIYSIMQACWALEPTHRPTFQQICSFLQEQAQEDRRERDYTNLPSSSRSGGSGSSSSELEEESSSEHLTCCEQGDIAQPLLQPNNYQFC

IRAK1(h) = IRAK1(h) (human, UniProt P51617 194-712, limits assumed)
Sequence of IRAK1(h) (P51617 194-712 limits assumed): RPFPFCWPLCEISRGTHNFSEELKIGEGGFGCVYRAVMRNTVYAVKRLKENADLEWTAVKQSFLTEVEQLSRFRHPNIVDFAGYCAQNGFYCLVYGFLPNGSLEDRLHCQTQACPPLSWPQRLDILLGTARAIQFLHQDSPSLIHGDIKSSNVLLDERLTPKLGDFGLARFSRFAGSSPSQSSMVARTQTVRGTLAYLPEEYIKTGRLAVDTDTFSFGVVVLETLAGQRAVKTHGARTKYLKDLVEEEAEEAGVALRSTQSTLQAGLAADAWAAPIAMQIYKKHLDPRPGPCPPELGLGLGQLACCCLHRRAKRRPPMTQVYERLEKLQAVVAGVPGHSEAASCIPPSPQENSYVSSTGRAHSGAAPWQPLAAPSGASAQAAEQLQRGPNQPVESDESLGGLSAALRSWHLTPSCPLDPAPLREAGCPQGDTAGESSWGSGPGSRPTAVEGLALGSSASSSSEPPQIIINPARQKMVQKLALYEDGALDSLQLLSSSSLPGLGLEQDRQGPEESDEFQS

Sequence of FGFR1(h) (P11362 456-765 limits assumed): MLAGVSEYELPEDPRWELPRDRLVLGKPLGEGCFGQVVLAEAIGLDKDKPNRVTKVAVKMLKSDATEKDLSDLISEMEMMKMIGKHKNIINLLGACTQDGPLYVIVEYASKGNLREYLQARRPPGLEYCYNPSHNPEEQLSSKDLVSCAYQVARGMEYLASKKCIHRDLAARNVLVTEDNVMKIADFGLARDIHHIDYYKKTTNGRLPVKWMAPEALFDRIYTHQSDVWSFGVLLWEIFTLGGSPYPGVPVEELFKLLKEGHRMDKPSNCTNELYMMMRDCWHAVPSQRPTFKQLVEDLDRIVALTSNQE
Sequence of Pim-2(h) (Q9P1W9 whole entry): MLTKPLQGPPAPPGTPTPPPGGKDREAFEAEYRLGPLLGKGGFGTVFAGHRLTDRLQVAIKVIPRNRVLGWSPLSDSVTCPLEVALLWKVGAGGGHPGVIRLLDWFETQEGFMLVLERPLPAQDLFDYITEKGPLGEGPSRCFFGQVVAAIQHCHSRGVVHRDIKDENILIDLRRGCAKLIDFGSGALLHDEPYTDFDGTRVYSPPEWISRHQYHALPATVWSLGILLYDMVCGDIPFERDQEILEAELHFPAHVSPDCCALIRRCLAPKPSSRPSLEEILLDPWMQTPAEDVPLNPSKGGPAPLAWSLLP
Sequence of PKBα(h) (P31749 whole entry): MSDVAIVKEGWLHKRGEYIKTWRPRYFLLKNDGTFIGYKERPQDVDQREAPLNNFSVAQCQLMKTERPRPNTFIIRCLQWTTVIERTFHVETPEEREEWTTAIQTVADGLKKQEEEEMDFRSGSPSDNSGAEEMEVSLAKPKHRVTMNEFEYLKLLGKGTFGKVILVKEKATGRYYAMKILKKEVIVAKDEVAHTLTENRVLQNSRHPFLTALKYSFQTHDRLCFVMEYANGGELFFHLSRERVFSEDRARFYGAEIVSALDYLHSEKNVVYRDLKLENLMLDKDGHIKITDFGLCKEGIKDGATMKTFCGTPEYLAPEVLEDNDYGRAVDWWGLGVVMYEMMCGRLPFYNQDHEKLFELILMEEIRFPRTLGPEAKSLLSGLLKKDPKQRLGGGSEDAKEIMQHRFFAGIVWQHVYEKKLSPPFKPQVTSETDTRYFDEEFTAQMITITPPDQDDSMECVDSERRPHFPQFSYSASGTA
Sequence of EphA7(h) (Q15375 577-998 limits assumed): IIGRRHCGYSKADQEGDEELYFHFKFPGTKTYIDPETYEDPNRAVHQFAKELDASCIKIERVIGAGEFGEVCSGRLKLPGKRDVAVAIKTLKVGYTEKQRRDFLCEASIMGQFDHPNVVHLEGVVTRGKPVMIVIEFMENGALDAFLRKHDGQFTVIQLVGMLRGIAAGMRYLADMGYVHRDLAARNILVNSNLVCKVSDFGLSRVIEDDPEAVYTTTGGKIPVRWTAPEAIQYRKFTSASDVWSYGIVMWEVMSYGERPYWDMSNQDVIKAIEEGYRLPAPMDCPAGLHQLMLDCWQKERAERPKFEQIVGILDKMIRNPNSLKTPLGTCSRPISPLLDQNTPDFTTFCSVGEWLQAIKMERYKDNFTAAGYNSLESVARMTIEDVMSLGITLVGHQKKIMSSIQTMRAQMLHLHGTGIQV
Sequence of Rsk4(h) (Q9UK32 whole entry): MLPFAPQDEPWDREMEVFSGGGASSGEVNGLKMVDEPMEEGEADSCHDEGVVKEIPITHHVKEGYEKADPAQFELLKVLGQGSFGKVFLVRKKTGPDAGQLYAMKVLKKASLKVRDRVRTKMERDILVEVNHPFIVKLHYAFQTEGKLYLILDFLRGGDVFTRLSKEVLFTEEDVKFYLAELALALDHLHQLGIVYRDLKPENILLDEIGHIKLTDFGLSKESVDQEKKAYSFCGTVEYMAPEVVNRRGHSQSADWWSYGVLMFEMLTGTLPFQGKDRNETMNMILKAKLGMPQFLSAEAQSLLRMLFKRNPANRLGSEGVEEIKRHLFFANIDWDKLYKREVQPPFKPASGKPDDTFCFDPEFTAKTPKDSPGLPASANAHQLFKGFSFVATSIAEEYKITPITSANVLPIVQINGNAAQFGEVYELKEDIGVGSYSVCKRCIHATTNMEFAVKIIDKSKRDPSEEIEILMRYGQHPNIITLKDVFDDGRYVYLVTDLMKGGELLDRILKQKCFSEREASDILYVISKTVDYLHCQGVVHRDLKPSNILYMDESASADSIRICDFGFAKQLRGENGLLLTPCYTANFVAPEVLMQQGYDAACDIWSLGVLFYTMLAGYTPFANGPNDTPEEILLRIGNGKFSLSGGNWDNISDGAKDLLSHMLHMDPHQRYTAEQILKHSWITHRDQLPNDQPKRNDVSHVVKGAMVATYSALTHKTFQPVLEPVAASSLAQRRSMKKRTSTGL
Sequence of CHK2(I157T)(h) (O96017 5-543 I157T limits assumed): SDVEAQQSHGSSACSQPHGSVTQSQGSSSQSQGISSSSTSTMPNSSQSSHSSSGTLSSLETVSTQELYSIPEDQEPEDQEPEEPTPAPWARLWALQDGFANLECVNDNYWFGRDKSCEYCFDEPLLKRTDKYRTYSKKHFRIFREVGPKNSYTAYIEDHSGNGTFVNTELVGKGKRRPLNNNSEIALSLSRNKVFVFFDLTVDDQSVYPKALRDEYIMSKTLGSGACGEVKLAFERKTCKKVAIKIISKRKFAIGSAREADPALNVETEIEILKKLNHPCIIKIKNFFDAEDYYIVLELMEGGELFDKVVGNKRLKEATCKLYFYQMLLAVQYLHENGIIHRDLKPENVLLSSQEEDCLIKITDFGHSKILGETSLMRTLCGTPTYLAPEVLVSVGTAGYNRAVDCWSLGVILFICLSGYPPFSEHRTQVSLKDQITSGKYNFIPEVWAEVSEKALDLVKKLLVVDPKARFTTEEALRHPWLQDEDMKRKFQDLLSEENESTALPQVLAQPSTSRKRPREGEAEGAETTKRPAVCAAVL
Sequence of PAK6(h) (Q9NQU5 whole entry): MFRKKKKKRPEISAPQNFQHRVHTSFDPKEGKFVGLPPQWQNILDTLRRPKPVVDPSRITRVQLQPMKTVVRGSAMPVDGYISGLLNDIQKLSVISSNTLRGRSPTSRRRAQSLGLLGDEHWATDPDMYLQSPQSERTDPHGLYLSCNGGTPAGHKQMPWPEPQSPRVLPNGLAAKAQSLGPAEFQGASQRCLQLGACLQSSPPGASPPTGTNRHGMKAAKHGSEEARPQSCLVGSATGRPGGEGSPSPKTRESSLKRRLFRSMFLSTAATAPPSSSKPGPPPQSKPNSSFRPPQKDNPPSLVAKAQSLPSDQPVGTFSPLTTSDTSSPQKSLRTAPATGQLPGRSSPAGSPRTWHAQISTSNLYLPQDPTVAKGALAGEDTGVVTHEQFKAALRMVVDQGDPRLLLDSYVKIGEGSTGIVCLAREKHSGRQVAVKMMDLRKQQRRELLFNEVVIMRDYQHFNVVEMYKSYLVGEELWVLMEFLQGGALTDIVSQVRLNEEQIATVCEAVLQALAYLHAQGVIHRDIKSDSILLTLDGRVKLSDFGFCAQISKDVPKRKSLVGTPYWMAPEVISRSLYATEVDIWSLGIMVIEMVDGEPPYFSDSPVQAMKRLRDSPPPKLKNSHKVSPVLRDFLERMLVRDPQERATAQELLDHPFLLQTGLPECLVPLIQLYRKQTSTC
Sequence of NEK6(h) (Q9HC98 whole entry): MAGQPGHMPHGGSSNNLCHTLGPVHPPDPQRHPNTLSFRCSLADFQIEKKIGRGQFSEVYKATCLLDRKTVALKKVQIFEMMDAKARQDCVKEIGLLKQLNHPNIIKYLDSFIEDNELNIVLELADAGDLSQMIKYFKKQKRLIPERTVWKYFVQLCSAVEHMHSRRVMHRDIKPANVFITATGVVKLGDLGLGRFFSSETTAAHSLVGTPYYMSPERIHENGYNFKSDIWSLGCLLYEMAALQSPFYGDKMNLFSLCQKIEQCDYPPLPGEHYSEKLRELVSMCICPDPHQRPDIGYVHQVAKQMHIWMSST

Row | Binder | % activity, 100 µM (PAK6(h)) | % activity, 100 µM (PKBα(h)) | % activity, 100 µM (CHK2(I157T)(h)) | % activity, 100 µM (NEK6(h)) | % activity, 100 µM (JNK2α2(h)) | % activity, 100 µM (Axl(h)) | % activity, 100 µM (Rsk3(h)) | % activity, 100 µM (FGFR1(h)) | % activity, 100 µM (Rsk4(h)) | % activity, 100 µM (PKD2(h)) | % activity, 100 µM (EphA7(h)) | % activity, 100 µM (Arg(h)) | % activity, 100 µM (Met(Y1248D)(h)) | % activity, 100 µM (Pim-2(h)) | % activity, 100 µM (Fgr(h)) | % activity, 100 µM (Fms(h)) | % activity, 100 µM (IRAK1(h))
1 | B1 | 104% | 57% | 43% | 82% | 98% | 52% | 76% | 55% | 90% | 33% | 159% | 72% | 102% | 76% | 60% | 45% | 95%
2 | B2 | 100% | 67% | 41% | 85% | 96% | 41% | 71% | 59% | 91% | 25% | 222% | 84% | 31% | 92% | 47% | 37% | 93%
